Substitutions are numbered along the chain they refer to.

B1: H1H3354P (antibody, V domains shown)
VH: QVQLQQSGPGLVKPSQTLSLTCAISGDSVSSNSAAWNWIRQSPSRGLEWLGRTYYRSKWYHDYAFSVKSRILINPDTSKNLFSLQVNSVTPEDTAVYYCARDRRSYFDYWGQGTLVTVSS
VL: EIVLTQSPATLSLSPGERATLSCRASRSVSSSLAWYQQKPGQAPRLLIYDASNRATGIPARFSGGGSGTDFTLTISSLEPEDFAVYYCQQRNNWPPTFGQGTKLEIKR
B2: H1H3325P (antibody, V domains shown)
VH: EVQLVESGGGLVQPGGSLRLSCAASGFTFNSFVMSWVRQAPGKGLEWVSAISGYGGSTYYADSMKGRFTVSRDNSKNTLYLQMNSLRAEDTAVYYCAKDHKDFYASGSYFNRDYYYGMDVWGQGTTVTVSS
VL: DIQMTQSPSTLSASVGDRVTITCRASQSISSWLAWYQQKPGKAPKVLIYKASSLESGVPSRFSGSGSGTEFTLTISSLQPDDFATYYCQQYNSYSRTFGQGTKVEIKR
B3: H1H3335P (antibody, V domains shown)
VH: EVQLVESGGGLVRPGGSLRLSCAASGFTFRIYAMSWVRQAPGKGLEWVSGISGSGDNTYYTDSVKGRFIISRDNSKSTLYLQMNSLRAEDTAVYYCARGWELLNYWGQGTLVTVSS
VL: DIQMTQSPSSLSAFVGDRVTITCRASQDISNHLAWFQQKPGKVPKSLIYAASSLQSGVPSKFSGSGSGTDFTLTISSLQPEDFATYYCQQYGLYPPTFGPGTKVDIKR
B4: H1H3347P (antibody, V domains shown)
VH: EVQLVESGGGLVQPGGSLRLSCVASGFTFTSYAMSWVRQAPGRGLQWVSAIGGSGDSIYYADSVKGRFTISRDNSKNTLYLQMDSLRAEDTAVYYCARGWELLNYWGQGTLVTVSS
VL: B3 VL with F14S, S30G, H32F, V43A, Q55K, F62I, S76N, G92N, L93I
B5: H1H3339P (antibody, V domains shown)
VH: B3 VH with R13Q, A24V, R30S, G50A, N57K, T61A, I69T, S77N, Y94F
VL: B3 VL with F14S, Q27L, H32F, K42T, V43A, A50S, Q55R, S56T, G92S, L93S
B6: H1H3344P (antibody, V domains shown)
VH: EVQLVESGGGLVQPGGSLRLSCAASGFTFKIYAMSWVRQGPGKGLEWVSAISGNGDKTYYTDSVQGRFTISRDNSKNTLFLQMNSLRAEDTAIYYCARGWELLNYWGQGTLVTVSS
VL: B3 VL with F14S, V15I, H32S, V43A, K61R, G92I, L93P, Y94F
B7: H1H3337P (antibody, V domains shown)
VH: B3 VH with R13Q, R30S, D56G, N57R, T61A, I69T, S77N, A88V, Y105F
VL: B3 VL with F14S, D28G, H32N, V43A, Q55K, S76N, Q89H, G92N, L93S
B8: H1H3343P (antibody, V domains shown)
VH: EVQLVESGGGLVQPGGSLRLSCVASGFNFRIYAMSWVRQAPGKGPEWVSGISGSGDNTYYAASVKGRFTVSRDNSKNTLYLQMTSLRAEDTAVFYCARGWELLNYWGQGTLVTVSS
VL: B3 VL with F14S, Q27L, S30G, H32F, K42T, V43A, A50S, S56T, G92N, L93S

One assay deals with T1, CBD-toxin A-Fc (Clostridium difficile, UniProt P16154 1848-2710).
T1 construct: also called CBD-A; C-term Toxin A
Description: SPR Biacore, CBD-A-Fc captured, 500 nM mAb flowed. For orientation: SPR reads the build-up and loss of mass on a sensor chip optically.
In the case of B1, the “binding (RU)” value is -2 RU.
The same measure, in the same setting: with B2 the figure was 3 RU; with B3, 5 RU; with B4, -13 RU.
For B5, the “binding (RU)” value is 2 RU.
Take B6: the “binding (RU)” value amounted to 5 RU.
Same read-out and setting: the same measure for B7: 8 RU; for B8: 3 RU.

The next assay concerns the target T2, Clostridium difficile toxin B, soluble full-length (TechLab) (Clostridium difficile, UniProt P18177 2-2366). The experiment in a line: cell-based or functional assay.
With B3, the “IC50, Vero cell viability (neutralization), Trial 1, 0.1 pM Toxin B” value turned out to be 730 pM; the “IC50, Vero cell viability (neutralization), Trial 2, 0.1 pM Toxin B” value turned out to be 380 pM; the “IC50, Vero cell viability (neutralization), Trial 3, 0.03 pM Toxin B” value came to 120 pM.
Taken in the same sequence, the figures for B4 were 130 pM, 90 pM and 25 pM.
The like results for B5 were, in that order, 480 pM, 270 pM and 90 pM.
The like results for B6 were, in that order, 580 pM, 400 pM and 40 pM.
For B7, the “IC50, Vero cell viability (neutralization), Trial 1, 0.1 pM Toxin B” value is 1730 pM; the “IC50, Vero cell viability (neutralization), Trial 2, 0.1 pM Toxin B” value is 980 pM; the “IC50, Vero cell viability (neutralization), Trial 3, 0.03 pM Toxin B” value was 320 pM.
The like results for B8 were, in that order, 280 pM, 200 pM and 50 pM.

A further assay deals with T2, Clostridium difficile toxin B, soluble …. The experiment in a line: SPR Biacore T200, 37C, mAb capture.
Regarding B1, the binding result was “no binding (tested: toxin at 5 to 10 nM)”.
Broadly, the Kd is the free concentration of one partner at which half of the binding sites on the other are occupied at equilibrium, for simple one-to-one binding. The koff is a measure of how fast the partners let go of each other. A high value points to a short-lived complex. Broadly, the kon is a measure of how fast the partners come together. As for B3, the dissociation constant Kd was 2.34 nM, the “T½” value was determined as 28 min, the koff worked out at 0.000414 s⁻¹ and the on-rate constant (kon) worked out at 177000 M⁻¹ s⁻¹.
The like results for B4 were, in that order, 2.4 nM, 14 min, 0.000813 s⁻¹ and 339000 M⁻¹ s⁻¹.
The like results for B5 were, in that order, 1.95 nM, 22 min, 0.000537 s⁻¹ and 276000 M⁻¹ s⁻¹.
In the case of B6, binding was characterised by a dissociation constant (Kd) of 4.24 nM, the “T½” value was determined as 13 min, the koff turned out to be 0.000865 s⁻¹ and the kon was found to be 204000 M⁻¹ s⁻¹.
The like results for B7 were, in that order, 3.93 nM, 12 min, 0.000945 s⁻¹ and 241000 M⁻¹ s⁻¹.
Taken in the same sequence, the figures for B8 were 1.58 nM, 26 min, 0.000448 s⁻¹ and 284000 M⁻¹ s⁻¹.

The target in another assay is T3, CBD-toxin B-Fc (Clostridium difficile, UniProt P18177 1851-2366).
T3 construct: also called CBD-B; C-term Toxin B
Description: SPR Biacore, CBD-B-Fc captured, 500 nM mAb flowed.
With B2, the “binding (RU)” value is -8 RU.
Still for that read-out and setting: with B3 the figure was -6 RU; with B5, -2 RU.
The same measure, in the same setting: with B6 the figure was -2 RU; with B8, -4 RU.

The target of the next assay is T4, Clostridium difficile toxin A, soluble full-length (TechLab) (Clostridium difficile, UniProt P16154 1-2710). The experiment in a line: cell-based or functional assay.
B2: the “IC50, Vero cell viability (neutralization), Trial 4, 32 pM Toxin A” value turned out to be 33 pM.

The target in the next assay is T3, CBD-toxin B-Fc. The experiment in a line: SPR Biacore, mAb capture and CBD-Fc capture formats.
Consider B4, for which the binding result is on record as “no binding”.

For a further assay, the target named is T1, CBD-toxin A-Fc. The assay is described as above.
Consider B2, for which the binding result is given as “no binding”.
For B3, the binding result is given as “no binding”.
Turning to B5, the binding result is on record as “no binding”.
With B6, the binding result is “no binding”.
The same measure, in the same setting: the same measure for B8: “no binding”.

In another assay the target is T5, C-term receptor Binding Domain (CBD) of toxin B (Clostridium difficile, UniProt P18177 1851-2366).
T5 construct: also called CBD-B
The experiment in a line: SEC (Superose 6) of CBD and mAb mixture.
B1: the binding result is “no binding (tested: CBD at ~500 nM, CBD:Mab 1:5 and 1:20)”.
The same measure, in the same setting: with B3 the entry was “no binding (tested: CBD at ~500 nM, CBD:Mab 1:5 and 1:20)”.
Consider B4, for which the binding result was “no binding (tested: CBD at ~500 nM, CBD:Mab 1:5 and 1:20)”.
On the same count and under the same terms, the same measure for B5: “no binding (tested: CBD at ~500 nM, CBD:Mab 1:5 and 1:20)”.
As for B6, the binding result was “no binding (tested: CBD at ~500 nM, CBD:Mab 1:5 and 1:20)”.
Turning to B7, the binding result is “no binding (tested: CBD at ~500 nM, CBD:Mab 1:5 and 1:20)”.
In the case of B8, the binding result is “no binding (tested: CBD at ~500 nM, CBD:Mab 1:5 and 1:20)”.

The target in another assay is T6, C-term receptor Binding Domain (CBD) of toxin A (Clostridium difficile, UniProt P16154 1848-2710).
T6 construct: also called CBD-A; recombinant CBD of toxin A
Description: SEC (Superose 6) of CBD and mAb mixture.
Turning to B2, the binding result was “no binding (tested: CBD at ~500 nM, CBD:Mab 1:5 and 1:20)”.

A further assay concerns the target T1, CBD-toxin A-Fc. The experiment in a line: SPR Biacore, mAb captured, 100 nM CBD-A-Fc flowed.
Regarding B1, the “binding (RU)” value was -19 RU.
As to B2, the “binding (RU)” value was 17 RU.
Still for that read-out and setting: with B3 the figure was 13 RU; with B4, 42 RU; with B5, 19 RU.
As for B6, the “binding (RU)” value came out at 5 RU.
With B7, the “binding (RU)” value was -17 RU.
Same read-out and setting: with B8 the figure was 11 RU.

The target of the next assay is T4, Clostridium difficile toxin A, soluble …. The experiment in a line: SPR Biacore T200, 37C, mAb capture.
For the molecule B2, the equilibrium dissociation constant (Kd) turned out to be 0.105 nM, the “T½” value is 209 min, the koff was 5.51e-05 s⁻¹ and the kon came to 527000 M⁻¹ s⁻¹.

(Values after US20160264650A1 (Regeneron, published 2016).)
